Test system: BirA*-FLAG-GATAD1 variants in Flp-In-293 cells
Assay: BioID proximity labelling of full-length GATAD1 variants (SILAC)
Type: cell-based, human
Settings: GATAD1 WT vs S102P, significant proteins only; for Log2_Ratio.H.L.normalized.WT_S102P_forward: forward experiment (label swap performed, sign inverted against the H/L ratio); for Log2_Ratio.H.L.normalized.WT_S102P_forward / Log2_Ratio.H.L.normalized.WT_S102P_reverse: log2 of normalized H/L ratio; for Ratio.H.L.normalized.WT_S102P_forward: forward experiment; for Log2_Ratio.H.L.normalized.WT_S102P_reverse / Ratio.H.L.normalized.WT_S102P_reverse: reverse experiment
Method in brief: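 Tetracycline-inducible Flp-In-293 T-REx lines expressing N-terminal BirA*-FLAG GATAD1 variants (WT, S102P, S102D, S102A) were SILAC-labelled, induced with 1 μg/mL tetracycline for 24 h and given 50 μM biotin overnight. Streptavidin-enriched proteins were trypsin-digested on-bead and analysed by LC-MS/MS. Label-swapped log2 SILAC ratios beyond ±1 defined differential proteins (n = 2).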

Molecule	Log2_Ratio.H.L.normalized.WT_S102P_forward	Ratio.H.L.normalized.WT_S102P_forward	Log2_Ratio.H.L.normalized.WT_S102P_reverse	Ratio.H.L.normalized.WT_S102P_reverse
ESF1 (protein, UniProt Q9H501 2-851, looked up) ESF1 homolog: SSKQEIMSDQRFRRVAKDPRFWEMPEKDRKVKIDKRFRAMFHDKKFKLNYAVDKRGRPISHSTTEDLKRFYDLSDSDSNLSGEDSKALSQKKIKKKKTQTKKEIDSKNLVEKKKETKKANHKGSENKTDLDNSIGIKKMKTSCKFKIDSNISPKKDSKEFTQKNKKEKKNIVQHTTDSSLEEKQRTLDSGTSEIVKSPRIECSKTRREMQSVVQLIMTRDSDGYENSTDGEMCDKDALEEDSESVSEIGSDEESENEITSVGRASGDDDGSEDDEEEDEDEEEDEDEDSEDDDKSDSGPDLARGKGNIETSSEDEDDTADLFPEESGFEHAWRELDKDAPRADEITRRLAVCNMDWDRLKAKDLLALFNSFKPKGGVIFSVKIYPSEFGKERMKEEQVQGPVELLSIPEDAPEKDWTSREKLRDYQFKRLKYYYAVVDCDSPETASKIYEDCDGLEFESSCSFIDLRFIPDDITFDDEPKDVASEVNLTAYKPKYFTSAAMGTSTVEITWDETDHERITMLNRKFKKEELLDMDFQAYLASSSEDEEEIEEELQGDDGVNVEEDGKTKKSQKDDEEQIAKYRQLLQVIQEKEKKGKENDMEMEIKWVPGLKESAEEMVKNKLEGKDKLTPWEQFLEKKKEKKRLKRKQKALAEEASEEELPSDVDLNDPYFAEEVKQIGINKKSVKSAKDGTSPEEEIEIERQKAEMALLMMDEDEDSKKHFNYNKIVEHQNLSKKKKKQLMKKKELIEDDFEVNVNDARFQAMYTSHLFNLDPSDPNFKKTKAMEKILEEKARQRERKEQELTQAIKKKESEIEKESQRKSIDPALSMLIKSIKTKTEQFQARKKQKVK	1.318	0.401	1.077	2.1103
WDR70 (protein, UniProt Q9NW82 1-654, looked up) WD repeat-containing protein …: MERSGPSEVTGSDASGPDPQLAVTMGFTGFGKKARTFDLEAMFEQTRRTAVERSRKTLEAREKEEEMNREKELRRQNEDIEPTSSRSNVVRDCSKSSSRDTSSSESEQSSDSSDDELIGPPLPPKMVGKPVNFMEEDILGPLPPPLNEEEEEAEEEEEEEEEEENPVHKIPDSHEITLKHGTKTVSALGLDPSGARLVTGGYDYDVKFWDFAGMDASFKAFRSLQPCECHQIKSLQYSNTGDMILVVSGSSQAKVIDRDGFEVMECIKGDQYIVDMANTKGHTAMLHTGSWHPKIKGEFMTCSNDATVRTWEVENPKKQKSVFKPRTMQGKKVIPTTCTYSRDGNLIAAACQNGSIQIWDRNLTVHPKFHYKQAHDSGTDTSCVTFSYDGNVLASRGGDDSLKLWDIRQFNKPLFSASGLPTMFPMTDCCFSPDDKLIVTGTSIQRGCGSGKLVFFERRTFQRVYEIDITDASVVRCLWHPKLNQIMVGTGNGLAKVYYDPNKSQRGAKLCVVKTQRKAKQAETLTQDYIITPHALPMFREPRQRSTRKQLEKDRLDPLKSHKPEPPVAGPGRGGRVGTHGGTLSSYIVKNIALDKTDDSNPREAILRHAKAAEDSPYWVSPAYSKTQPKTMFAQVESDDEEAKNEPEWKKRKI	1.547	0.3422	1.108	2.1553
ACIN1 (protein, UniProt Q9UKV3 1-1341, looked up) Apoptotic chromatin …: MWRRKHPRTSGGTRGVLSGNRGVEYGSGRGHLGTFEGRWRKLPKMPEAVGTDPSTSRKMAELEEVTLDGKPLQALRVTDLKAALEQRGLAKSGQKSALVKRLKGALMLENLQKHSTPHAAFQPNSQIGEEMSQNSFIKQYLEKQQELLRQRLEREAREAAELEEASAESEDEMIHPEGVASLLPPDFQSSLERPELELSRHSPRKSSSISEEKGDSDDEKPRKGERRSSRVRQARAAKLSEGSQPAEEEEDQETPSRNLRVRADRNLKTEEEEEEEEEEEEDDEEEEGDDEGQKSREAPILKEFKEEGEEIPRVKPEEMMDERPKTRSQEQEVLERGGRFTRSQEEARKSHLARQQQEKEMKTTSPLEEEEREIKSSQGLKEKSKSPSPPRLTEDRKKASLVALPEQTASEEETPPPLLTKEASSPPPHPQLHSEEEIEPMEGPAPAVLIQLSPPNTDADTRELLVSQHTVQLVGGLSPLSSPSDTKAESPAEKVPEESVLPLVQKSTLADYSAQKDLEPESDRSAQPLPLKIEELALAKGITEECLKQPSLEQKEGRRASHTLLPSHRLKQSADSSSSRSSSSSSSSSRSRSRSPDSSGSRSHSPLRSKQRDVAQARTHANPRGRPKMGSRSTSESRSRSRSRSRSASSNSRKSLSPGVSRDSSTSYTETKDPSSGQEVATPPVPQLQVCEPKERTSTSSSSVQARRLSQPESAEKHVTQRLQPERGSPKKCEAEEAEPPAATQPQTSETQTSHLPESERIHHTVEEKEEVTMDTSENRPENDVPEPPMPIADQVSNDDRPEGSVEDEEKKESSLPKSFKRKISVVSATKGVPAGNSDTEGGQPGRKRRWGASTATTQKKPSISITTESLKSLIPDIKPLAGQEAVVDLHADDSRISEDETERNGDDGTHDKGLKICRTVTQVVPAEGQENGQREEEEEEKEPEAEPPVPPQVSVEVALPPPAEHEVKKVTLGDTLTRRSISQQKSGVSITIDDPVRTAQVPSPPRGKISNIVHISNLVRPFTLGQLKELLGRTGTLVEEAFWIDKIKSHCFVTYSTVEEAVATRTALHGVKWPQSNPKFLCADYAEQDELDYHRGLLVDRPSETKTEEQGIPRPLHPPPPPPVQPPQHPRAEQREQERAVREQWAEREREMERRERTRSEREWDRDKVREGPRSRSRSRDRRRKERAKSKEKKSEKKEKAQEEPPAKLLDDLFRKTKAAPCIYWLPLTDSQIVQKEAERAERAKEREKRRKEQEEEEQKEREKEAERERNRQLEREKRREHSRERDRERERERERDRGDRDRDRERDRERGRERDRRDTKRHSRSRSRSTPVRDRGGRR	1.249	0.4208	1.096	2.1371
RANBP3 (protein, UniProt Q9H6Z4 2-567, looked up) Ran-binding protein 3: ADLANEEKPAIAPPVFVFQKDKGQKSPAEQKNLSDSGEEPRGEAEAPHHGTGHPESAGEHALEPPAPAGASASTPPPPAPEAQLPPFPRELAGRSAGGSSPEGGEDSDREDGNYCPPVKRERTSSLTQFPPSQSEERSSGFRLKPPTLIHGQAPSAGLPSQKPKEQQRSVLRPAVLQAPQPKALSQTVPSSGTNGVSLPADCTGAVPAASPDTAAWRSPSEAADEVCALEEKEPQKNESSNASEEEACEKKDPATQQAFVFGQNLRDRVKLINESVDEADMENAGHPSADTPTATNYFLQYISSSLENSTNSADASSNKFVFGQNMSERVLSPPKLNEVSSDANRENAAAESGSESSSQEATPEKESLAESAAAYTKATARKCLLEKVEVITGEEAESNVLQMQCKLFVFDKTSQSWVERGRGLLRLNDMASTDDGTLQSRLVMRTQGSLRLILNTKLWAQMQIDKASEKSIRITAMDTEDQGVKVFLISASSKDTGQLYAALHHRILALRSRVEQEQEAKMPAPEPGAAPSNEEDDSDDDDVLAPSGATAAGAGDEGDGQTTGST	1.029	0.49	1.139	2.2024
C11orf58;SMAP (protein, UniProt O00193 1-183, looked up) Small acidic protein: MSAARESHPHGVKRSASPDDDLGSSNWEAADLGNEERKQKFLRLMGAGKKEHTGRLVIGDHKSTSHFRTGEEDKKINEELESQYQQSMDSKLSGRYRRHCGLGFSEVEDHDGEGDVAGDDDDDDDDSPDPESPDDSESDSESEKEESAEELQAAEHPDEVEDPKNKKDAKSNYKMMFVKSSGS	1.333	0.3971	1.1961	2.2912
THRAP3 (protein, UniProt Q9Y2W1 2-955, looked up) Thyroid hormone …: SKTNKSKSGSRSSRSRSASRSRSRSFSKSRSRSRSLSRSRKRRLSSRSRSRSYSPAHNRERNHPRVYQNRDFRGHNRGYRRPYYFRGRNRGFYPWGQYNRGGYGNYRSNWQNYRQAYSPRRGRSRSRSPKRRSPSPRSRSHSRNSDKSSSDRSRRSSSSRSSSNHSRVESSKRKSAKEKKSSSKDSRPSQAAGDNQGDEAKEQTFSGGTSQDTKASESSKPWPDATYGTGSASRASAVSELSPRERSPALKSPLQSVVVRRRSPRPSPVPKPSPPLSSTSQMGSTLPSGAGYQSGTHQGQFDHGSGSLSPSKKSPVGKSPPSTGSTYGSSQKEESAASGGAAYTKRYLEEQKTENGKDKEQKQTNTDKEKIKEKGSFSDTGLGDGKMKSDSFAPKTDSEKPFRGSQSPKRYKLRDDFEKKMADFHKEEMDDQDKDKAKGRKESEFDDEPKFMSKVIGANKNQEEEKSGKWEGLVYAPPGKEKQRKTEELEEESFPERSKKEDRGKRSEGGHRGFVPEKNFRVTAYKAVQEKSSSPPPRKTSESRDKLGAKGDFPTGKSSFSITREAQVNVRMDSFDEDLARPSGLLAQERKLCRDLVHSNKKEQEFRSIFQHIQSAQSQRSPSELFAQHIVTIVHHVKEHHFGSSGMTLHERFTKYLKRGTEQEAAKNKKSPEIHRRIDISPSTFRKHGLAHDEMKSPREPGYKAEGKYKDDPVDLRLDIERRKKHKERDLKRGKSRESVDSRDSSHSRERSAEKTEKTHKGSKKQKKHRRARDRSRSSSSSSQSSHSYKAEEYTEETEEREESTTGFDKSRLGTKDFVGPSERGGGRARGTFQFRARGRGWGRGNYSGNNNNNSNNDFQKRNREEEWDPEYTPKSKKYYLHDDREGEGSDKWVSRGRGRGAFPRGRGRFMFRKSSTSPKWAHDKFSGEEGEIEDDESGTENREEKDNIQPTTE	1.318	0.4011	1.052	2.0733
WDR83 (protein, UniProt Q9BRX9 1-315, looked up) WD repeat domain-containing …: MAFPEPKPRPPELPQKRLKTLDCGQGAVRAVRFNVDGNYCLTCGSDKTLKLWNPLRGTLLRTYSGHGYEVLDAAGSFDNSSLCSGGGDKAVVLWDVASGQVVRKFRGHAGKVNTVQFNEEATVILSGSIDSSIRCWDCRSRRPEPVQTLDEARDGVSSVKVSDHEILAGSVDGRVRRYDLRMGQLFSDYVGSPITCTCFSRDGQCTLVSSLDSTLRLLDKDTGELLGEYKGHKNQEYKLDCCLSERDTHVVSCSEDGKVFFWDLVEGALALALPVGSGVVQSLAYHPTEPCLLTAMGGSVQCWREEAYEAEDGAG	1.042	0.4856	1.085	2.1217
